Common to all, as to format: cell-based
One assay deals with U-87 MG. The assay is described as follows: JNG NFAT-GFP assay, co-culture with U-87 MG cells.
The next assay relates to RS;411. The assay is described as follows: JNG assay, co-culture with RS;411 cells. Conditions: co-culture with RS411. The gist of the method: (§1)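 Jurkat-NFAT-GFP (JNG) cells stably expressing SAR constructs via lentiviral transduction and puromycin/blasticidin selection were cocultured with target cells at E:T ~1:2 for ~4–18 h. NFAT-driven GFP was measured by FACS versus parental JNG cells; scores +/- to 5+ denote ~5–50% GFP-positive cells.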

In another assay the test system is RAJI-CD19-KO cells. As to the kind of experiment: JNG assay, co-culture with RAJI-CD19-KO cells. Conditions: co-culture with Raji-CD19-KO. The method, boiled down:
as §1

The test system of a further assay is RAJI cells. The assay is described as follows: JNG assay, co-culture with RAJI cells. Conditions: JNG cells expressing construct, co-culture with Raji. The method, boiled down:
as §1

Experimental findings from patent US20230212319A1, “NOVEL ANTIGEN BINDING DOMAINS AND SYNTHETIC ANTIGEN RECEPTORS INCORPORATING THE SAME” (University of Southern California, priority 2020, published 2023) are described below.

B1: 22169 (protein)
chain: MALPVTALLLPLALLLHAARPEVQLVESGGGLVQPGGSLRLSCAASGFASDYYIIGWFRQAPGKEREGVSCISSRYANTNYADSVKGRFTISRDNAKNTVYLQMNSLKPEDTAVYYCAADTRRYTCPDIATMHRNFDSWGQGTLVTVSSGTGGGGSGGGGSGGGGSEFDIQMTQSPSSLSASVGDRVTITCKASDHINNWLAWYQQKPGQAPKLLIYGATTLETGVPSRFSGSGSGTDYTLTISSLQPEDFATYYCQQSWNTPWTFGQGTKLEIKRLEIQNPDPAVYQLRDSKSSDKSVCLFTDFDSQTNVSQSKDSDVYITDKCVLDMRSMDFKSNSAVAWSNKSDFACANAFNNSIIPEDTFFPSSDVPCDVKLVEKSFETDTNLNFQNLSVIGFRILLLKVAGFNLLMTLRLWSSRAKRSGSGVKQTLNFDLLKLAGDVESNPGPTSATMDWIWRILFLVGAATGAHSGPQVQLQESGGGLAQAGGSLRLSCAASGRTFSMGWFRQAPGKEREFVAAITYSGGSPYYASSVRGRFTISRDNAKNTVYLQMNSLKPEDTAVYYCAANPTYGSDWNAENWGQGTQVTVSSGSGGGGSGGGGSGGGGSFEQVQLQQPGAELVKPGASVKMSCKASGYAFSSYWINWMKQKPGQGLEWIGQIYPGDGDTNYNGKFKGRATLTADTSSSTAYMQLSSLTSEDSAVYFCARSITTVVGCAMDYWGQGTSVTVSSTREDLKNVFPPEVAVFEPSKAEIAHTQKATLVCLATGFYPDHVELSWWVNGKEVHSGVCTDPQPLKEQPALNDSRYCLSSRLRVSATFWQNPRNHFRCQVQFYGLSENDEWTQDRAKPVTQIVSAEAWGRADCGITSASYHQGVLSATILYEILLGKATLYAVLVSALVLMAMVKRKDSRGRAKRSGSGATNFSLLKQAGDVEENPGPSRGHMTEYKPTVRLATRDDVPRAVRTLAAAFADYPATRHTVDPDRHIERVTELQELFLTRVGLDIGKVWVADDGAAVAVWTTPESVEAGAVFAEIGPRMAELSGSRLAAQQQMEGLLAPHRPKEPAWFLATVGVSPDHQGKGLGSAVVLPGVEAAERAGVPAFLETSAPRNLPFYERLGFTVTADVEVPEGPRTWCMTRKPGA
In the case of B1, the “NFAT-GFP ASSAY: U-87 MG” value with U-87 MG is 3+ (refer to approximately 5%, 10%, 20%, 30%, 40% and 50% GFP positive cells). The “NFAT-GFP ASSAY: RS411” value in the assay with RS;411 is 2+ (refer to approximately 5%, 10%, 20%, 30%, 40% and 50% GFP positive cells). The “NFAT-GFP ASSAY: Raji-CD19-KO” value in the assay on RAJI-CD19-KO cells was 4+ (refer to approximately 5%, 10%, 20%, 30%, 40% and 50% GFP positive cells). Also, in the assay with RAJI cells, the “NFAT-GFP ASSAY: Raji” value is 3+ (refer to approximately 5%, 10%, 20%, 30%, 40% and 50% GFP positive cells).
